According to publication PMC6804595 (2018):

Key:
Test in all cases: SPR
[1] = target: CD147 V61A
[2] = target: T1, ectodomain of CD147 (CD147_(ecto)), wild type (human)
T1 chain: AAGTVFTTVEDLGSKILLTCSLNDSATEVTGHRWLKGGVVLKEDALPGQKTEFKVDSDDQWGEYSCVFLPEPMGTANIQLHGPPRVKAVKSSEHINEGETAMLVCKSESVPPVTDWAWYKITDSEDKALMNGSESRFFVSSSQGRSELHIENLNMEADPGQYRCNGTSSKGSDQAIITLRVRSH

[3] = target: T2, CD147 E64A (human)
T2 chain: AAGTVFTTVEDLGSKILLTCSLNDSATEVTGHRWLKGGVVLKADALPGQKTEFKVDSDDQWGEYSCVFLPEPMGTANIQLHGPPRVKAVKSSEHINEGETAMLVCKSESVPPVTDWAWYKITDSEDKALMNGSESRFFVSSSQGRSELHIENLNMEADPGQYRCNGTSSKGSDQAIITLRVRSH

[4] = target: T3, CD147 D65A (human)
T3 chain: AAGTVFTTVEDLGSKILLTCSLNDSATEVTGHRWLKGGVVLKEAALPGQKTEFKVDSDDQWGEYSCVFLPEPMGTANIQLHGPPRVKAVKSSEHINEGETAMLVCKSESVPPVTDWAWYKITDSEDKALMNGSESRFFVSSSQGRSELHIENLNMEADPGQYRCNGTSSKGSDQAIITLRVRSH

[5] = target: T4, CD147 K63A/D65A double mutant (human)
T4 chain: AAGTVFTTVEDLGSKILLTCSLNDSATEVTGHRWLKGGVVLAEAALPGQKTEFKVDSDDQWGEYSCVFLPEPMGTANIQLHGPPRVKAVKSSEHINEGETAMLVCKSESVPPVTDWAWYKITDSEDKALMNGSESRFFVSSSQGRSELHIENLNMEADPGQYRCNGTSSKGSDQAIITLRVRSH

[6] = target: T5, CD147 L62A (human)
T5 chain: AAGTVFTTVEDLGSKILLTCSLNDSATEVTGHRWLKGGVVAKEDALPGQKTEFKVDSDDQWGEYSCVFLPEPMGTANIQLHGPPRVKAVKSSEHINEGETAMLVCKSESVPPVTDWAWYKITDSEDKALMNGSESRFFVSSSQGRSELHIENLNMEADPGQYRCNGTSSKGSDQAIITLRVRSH

[7] = target: T6, CD147 K63A (human)
T6 chain: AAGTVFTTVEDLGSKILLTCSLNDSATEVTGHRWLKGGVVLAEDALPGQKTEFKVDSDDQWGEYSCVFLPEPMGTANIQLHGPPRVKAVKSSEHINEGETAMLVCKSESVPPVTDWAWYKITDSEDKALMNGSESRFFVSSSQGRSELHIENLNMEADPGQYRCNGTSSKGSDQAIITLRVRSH

Kd [1]: 0.97 nM | Kd [2]: 0.566 nM | Kd [3]: 7.07 nM | Kd [4]: 12.7 nM | Kd [5]: 115 nM | Kd [6]: 2.71 nM | Kd [7]: 576 nM
B1: anti-CD147 mAb 5A12 (antibody, V domains shown)
VH: EVKLEESGGGLVQPGGSMKLSCVASGFTFSNYWMHWVRQSPEKGLEWVAEIRLKSINYATHYAESVKGRFTISRDDSKSSVYLQMNNLRTEDTGIYYCTSYDYEYWGQGTLITVSA
VL: NIVMTQSPKSMSMSVGERVTLSCKASEIVGTYVSWYQQKPEQSPKLLIYGASNRYTGVPDRFTGSGSATDFTLTISSVQAEDLADYHCGQSYSYPFTFGSGTKLEIK
